Laboratory results published in PMC8274835.

How the values were obtained:
Experiment in all cases: co-IP; mCherry-Rac1 transiently expressed in HEK293T for 16 h, precipitated with the RFP-TRAP kit (Chromotek); endogenous RhoGDI by Western blot, quantified (n = 3)
mCherry-Rac1 P29S = mCherry-Rac1 P29S (UniProt P63000)
mCherry-Rac1 F28L = mCherry-Rac1 F28L (UniProt P63000)
mCherry-Rac1 Y64F = mCherry-Rac1 Y64F (UniProt P63000)
mCherry-Rac1 G12V = mCherry-Rac1 G12V (UniProt P63000)

Measured: reduction of co-precipitated GDI against Rac1 WT

RhoGDI (endogenous, HEK293T) (from UniProt P52565 1-204) (natural protein)
50%: all assays above
